What was measured:
[1] = biological target: T1, NEF peptide on HLA-A*24:02 (human); assay: cytokine release
T1 peptide: RYPLTFGWCF

[2] = biological target: T2, WT1 peptide on HLA-A*02:01 (human); assay: activation reporter or marker
T2 peptide: RMFPNAPYL

B1: FE11 γδTCR (TCR, V domains shown)
Vgamma: SSNLEGGTKSVTRPTRSSAEITCDLTVINAFYIHWYLHQEGKAPQRLLYYDVSNSKDVLESGLSPGKYYTHTPRRWSWILILRNLIENDSGVYYCATWDRPEIYYKKLFGSGTTLVVT
Vdelta: not shown
[1]
  binding result: no recognition
[2]
  binding result: no recognition

Source: patent publication US20230248770A1 (published 2023)
